Data set [1] concerns CHO cells stably expressing GUCY2C. The settings on record: 20 kBq/µg; 6 days; vs isotype control.
Method: In vitro cytotoxicity of Ac-225-ACC was determined in cell lines expressing different levels of relevant target receptors. Cells were seeded at an appropriate cell density in relevant cell media. One day after seeding, the radiolabeled compounds at the specific activity of 2-20 kBq/µg and radioactive concentration of 50-100 kBq/ml were titrated in parallel with a radiolabeled isotype control. Cells were incubated for 5-6 days. Cell viability was determined by cell counting using Hoechst and PI staining and analyzed on Operetta CLS High Content Analysis System (Perkin Elmer) or by ATP measurements using CellTiterGlo (Promega).
The cells were seeded at an appropriate cell density in MEM Alpha + 10% FBS + 1x Glutamax + 0.5 mg/ml G418. […] Cells were treated for 6 days and subsequentially cell viability was determined using CellTiterGlo (Promega).
A further data set deals with GUCY2C (Homo sapiens, UniProt P25092). The data set is described as follows: Immunoreactive fraction (IRF), binding to GUCY2C-coated beads. The procedure: Shortly after completion of the radiolabeling, the binding was assessed by measuring the fraction of radiolabeled antibody-chelator conjugate bound to relevant antigen coated magnetic beads (Thermo Fisher Scientific). In short, beads were placed in 2 mL Eppendorf tubes in 90 µL buffer (PBS/0.1% Tween 20/1% BSA). The radiolabeled compounds were diluted to 5 Bq/µL in buffer and 50 Bq were added to each bead-containing tube. The binding lasted for 60 min while shaking at 750 rpm at room temperature. After completion of the binding step, magnet (DynaMag-2) was used to separate the beads from […] supernatant. The radio activities in the supernatant and in the beads of each sample were measured using a high purity Germanium detector (Ortec). […] Total binding was defined as [(activity in beads […])/ (total activity)] × 100.
After completion of the radiolabeling, the binding Ac225-macropa-Indusatumab to GUCY2C-coated M270-carboxy Dynabeads was determined by IRF (as describe above).

The next data set has as its target T1, human c-Met (Homo sapiens, UniProt P08581).
T1 construct: MKN-45 and HT-55 cells expressing human c-Met; endogenous in cells; host or cells: MKN-45, HT-55
The experiment in a line: Flow cytometry, cell surface binding on MKN-45 and HT-55 cells. The conditions noted are these: compared to unconjugated Telisotuzumab. As for the experimental part: The in vitro binding properties of antibody-chelator conjugates were assessed in various relevant cell lines and compared to their corresponding unconjugated antibody. Briefly, samples were diluted in buffer (PBS/3% FBS) and added to relevant cell lines. After completion of the binding step (60 min at 4°C), the cells were washed and incubated with secondary antibody conjugated with phycoerythrin to detect antibodies containing a human IgG Fc region. After 60 min at 4°C, the cells were washed, and fluorescence on the cells was determined by flow cytometry using Guava EasyCyte 8HT (Luminex).
Cell surface binding of Telisotuzumab-macropa was compared to unconjugated Telisotuzumab and investigated by flow cytometry using MKN-45 and HT-55 cells expressing human c-Met (Figure 37).
On the technique in general: A flow cytometer gives signals particle by particle.

T1 sequence (P08581 25-1390): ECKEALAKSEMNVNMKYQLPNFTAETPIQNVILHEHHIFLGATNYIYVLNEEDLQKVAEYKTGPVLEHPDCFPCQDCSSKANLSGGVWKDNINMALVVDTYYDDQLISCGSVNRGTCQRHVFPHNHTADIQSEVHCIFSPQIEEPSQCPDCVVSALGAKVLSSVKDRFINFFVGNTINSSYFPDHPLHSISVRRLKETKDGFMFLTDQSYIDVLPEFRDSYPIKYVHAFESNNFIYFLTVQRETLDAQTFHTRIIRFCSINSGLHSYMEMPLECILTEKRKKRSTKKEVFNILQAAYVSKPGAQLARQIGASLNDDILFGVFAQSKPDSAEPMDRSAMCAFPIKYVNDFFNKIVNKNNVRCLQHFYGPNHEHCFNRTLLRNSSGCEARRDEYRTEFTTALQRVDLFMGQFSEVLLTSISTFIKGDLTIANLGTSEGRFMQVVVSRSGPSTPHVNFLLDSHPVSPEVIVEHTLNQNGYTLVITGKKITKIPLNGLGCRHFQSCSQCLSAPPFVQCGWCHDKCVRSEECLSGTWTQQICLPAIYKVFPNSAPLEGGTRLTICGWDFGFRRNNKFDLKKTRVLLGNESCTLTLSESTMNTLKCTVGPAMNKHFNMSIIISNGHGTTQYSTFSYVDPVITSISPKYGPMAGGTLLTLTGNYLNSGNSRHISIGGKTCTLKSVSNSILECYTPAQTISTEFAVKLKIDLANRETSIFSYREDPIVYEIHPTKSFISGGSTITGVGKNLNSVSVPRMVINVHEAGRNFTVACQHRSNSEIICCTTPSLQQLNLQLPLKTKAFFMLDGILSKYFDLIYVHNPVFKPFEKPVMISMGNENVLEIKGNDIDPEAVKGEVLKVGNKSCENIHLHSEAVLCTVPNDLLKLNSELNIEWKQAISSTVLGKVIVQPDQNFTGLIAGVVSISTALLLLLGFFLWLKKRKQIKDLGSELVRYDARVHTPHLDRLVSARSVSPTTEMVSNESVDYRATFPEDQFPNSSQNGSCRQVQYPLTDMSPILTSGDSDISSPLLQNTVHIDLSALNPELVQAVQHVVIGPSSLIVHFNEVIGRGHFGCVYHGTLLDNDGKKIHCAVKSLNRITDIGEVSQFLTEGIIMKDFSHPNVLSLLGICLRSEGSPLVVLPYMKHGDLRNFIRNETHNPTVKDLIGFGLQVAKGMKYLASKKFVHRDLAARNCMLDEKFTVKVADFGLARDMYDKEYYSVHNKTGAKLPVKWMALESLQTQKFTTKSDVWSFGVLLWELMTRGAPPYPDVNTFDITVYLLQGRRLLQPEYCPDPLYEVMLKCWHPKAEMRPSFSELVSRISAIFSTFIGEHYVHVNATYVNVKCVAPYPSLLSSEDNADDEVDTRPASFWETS

“Ac-225-macropa-Indusatumab: Ac-225 macropa complex bound to the anti-GUCY2C monoclonal antibody Indusatumab”: the cytotoxicity result in data set [1] was “strong and specific cytotoxicity”. In the data set with GUCY2C, the “amount of GUCY2C-coated beads at which maximal binding was achieved” value was found to be 7.5 µg.

Consider Telisotuzumab-macropa, for which, in the data set with human c-Met, the EC50 entry is listed as “comparable EC50 in both cell lines as unconjugated Telisotuzumab”.

The values are drawn from patent publication EP4552657A1, “RADIOPHARMACEUTICAL COMPLEXES AND COMBINATIONS” (priority 2023, dated 2025).
